This is an account of results in patent US20170368132A1 (published 2017).

The target in one assay is T1, H. sapiens Rad51 (H. sapiens, UniProt Q06609 1-339).
T1 construct: Expressed in yeast as a two-hybrid fusion; also called human RAD51
T1 sequence: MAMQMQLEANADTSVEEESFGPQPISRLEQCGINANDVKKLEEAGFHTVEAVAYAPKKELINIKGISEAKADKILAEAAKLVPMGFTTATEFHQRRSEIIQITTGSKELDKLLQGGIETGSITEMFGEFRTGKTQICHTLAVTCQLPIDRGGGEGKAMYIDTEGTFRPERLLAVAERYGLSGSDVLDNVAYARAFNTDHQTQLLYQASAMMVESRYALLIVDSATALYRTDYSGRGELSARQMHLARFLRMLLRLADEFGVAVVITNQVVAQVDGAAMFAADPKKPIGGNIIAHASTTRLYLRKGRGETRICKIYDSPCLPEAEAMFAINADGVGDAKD
The assay is described as follows: yeast two-hybrid, growth on -ADE -HIS. The procedure:
(§1) RAD51-binding peptides were tested for ability to bind RAD51 of several different species using a “conventional” Y2H assay, where interaction between the two-hybrid pair drove expression of ADE2 and HIS genes. In this Y2H assay the two-hybrid pair was RAD51 and the compound 5 peptide sequence (SEQ ID NO.:5), so that cells having the interaction would survive (+) and cells not having the interaction would die (−) on selective media (−ADE, −HIS).

Another assay deals with T2, S. pombe Rad51 (S. pombe, UniProt P36601 1-365, limits assumed).
T2 construct: Y2H fusion in yeast
T2 sequence (looked up): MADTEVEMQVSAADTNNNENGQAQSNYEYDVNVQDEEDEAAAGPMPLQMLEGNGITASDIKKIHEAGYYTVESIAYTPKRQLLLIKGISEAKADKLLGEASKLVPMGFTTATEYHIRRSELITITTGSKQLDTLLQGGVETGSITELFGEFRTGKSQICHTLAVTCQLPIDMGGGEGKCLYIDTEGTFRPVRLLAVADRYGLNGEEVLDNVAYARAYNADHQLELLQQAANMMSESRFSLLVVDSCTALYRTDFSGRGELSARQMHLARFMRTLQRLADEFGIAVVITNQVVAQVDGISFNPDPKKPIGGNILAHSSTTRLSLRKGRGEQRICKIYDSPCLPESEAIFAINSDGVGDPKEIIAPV
The assay is described as follows: yeast two-hybrid, growth on -ADE -HIS. The procedure: as §1

In a further assay the target is T3, S. cerevisiae Rad51 (S. cerevisiae, UniProt P25454 1-400, limits assumed).
T3 construct: Y2H fusion in yeast
T3 sequence (looked up): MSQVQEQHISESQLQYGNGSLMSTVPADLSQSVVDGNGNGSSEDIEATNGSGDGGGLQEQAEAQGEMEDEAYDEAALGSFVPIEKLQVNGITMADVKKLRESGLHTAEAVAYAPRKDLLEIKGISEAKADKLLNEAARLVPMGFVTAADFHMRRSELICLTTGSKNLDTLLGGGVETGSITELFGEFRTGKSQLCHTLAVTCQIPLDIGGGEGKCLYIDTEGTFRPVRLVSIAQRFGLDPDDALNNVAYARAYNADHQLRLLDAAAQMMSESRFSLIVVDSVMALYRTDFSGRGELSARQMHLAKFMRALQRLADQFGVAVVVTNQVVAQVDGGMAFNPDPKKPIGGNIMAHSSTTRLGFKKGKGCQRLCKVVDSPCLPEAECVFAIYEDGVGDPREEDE
The assay is described as follows: yeast two-hybrid, growth on -ADE -HIS. The protocol:
as §1

In a further assay the target is T4, G. gallus Rad51 (G. gallus, UniProt P37383 1-339, limits assumed).
T4 construct: Y2H fusion in yeast
T4 sequence (looked up): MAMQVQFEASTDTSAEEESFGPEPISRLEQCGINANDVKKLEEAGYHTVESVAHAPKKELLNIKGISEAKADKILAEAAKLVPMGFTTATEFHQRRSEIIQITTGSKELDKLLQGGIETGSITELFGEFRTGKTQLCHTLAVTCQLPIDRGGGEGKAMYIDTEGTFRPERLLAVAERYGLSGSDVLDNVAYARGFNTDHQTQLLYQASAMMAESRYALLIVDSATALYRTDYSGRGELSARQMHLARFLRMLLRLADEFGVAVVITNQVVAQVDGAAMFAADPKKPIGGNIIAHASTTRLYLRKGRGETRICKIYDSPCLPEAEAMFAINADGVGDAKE
Put plainly: yeast two-hybrid, growth on -ADE -HIS. The procedure: as §1

The target of another assay is T5, Rad51 (F86E; A89E) (human, UniProt Q06609 1-339).
T5 construct: Human RAD51 mutant tested by Y2H; also called human RAD51 F86E A89E
T5 chain: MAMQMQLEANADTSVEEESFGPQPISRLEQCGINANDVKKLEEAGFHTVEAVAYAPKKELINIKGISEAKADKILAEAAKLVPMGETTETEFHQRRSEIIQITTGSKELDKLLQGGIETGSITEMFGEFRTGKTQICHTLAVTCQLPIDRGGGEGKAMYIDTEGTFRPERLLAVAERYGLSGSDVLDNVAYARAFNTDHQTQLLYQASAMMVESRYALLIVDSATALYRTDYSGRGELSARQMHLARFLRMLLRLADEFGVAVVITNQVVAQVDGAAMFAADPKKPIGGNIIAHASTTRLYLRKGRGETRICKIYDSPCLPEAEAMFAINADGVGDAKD
The assay is described as follows: yeast two-hybrid, human RAD51 mutant. The procedure: The ability of peptides to bind human RAD51 with various mutations was then tested by Y2H assay. […] While mutations affecting BRCA2 binding had no effect on peptide binding, mutations that affected RAD51-AP1 binding did disrupt peptide binding. As these mutations were at residues 202, 205, and 206, they were consistent with the previous fusion data showing binding somewhere in the 190-218 region, and indicated the peptide SEQ ID NO.:5 contacts at least residues 202, 205, and 206 of RAD51.

For assay [1], the target named is T6, S. cerevisiae Rad51 (1-278) + H. sapiens Rad51 (218-339) (S. cerevisiae; H. sapiens, UniProt P25454 1-278).
T6 construct: range 1-278; Y2H fusion in yeast; also called cerevisiae-sapiens hybrid construct of RAD51
T6 sequence: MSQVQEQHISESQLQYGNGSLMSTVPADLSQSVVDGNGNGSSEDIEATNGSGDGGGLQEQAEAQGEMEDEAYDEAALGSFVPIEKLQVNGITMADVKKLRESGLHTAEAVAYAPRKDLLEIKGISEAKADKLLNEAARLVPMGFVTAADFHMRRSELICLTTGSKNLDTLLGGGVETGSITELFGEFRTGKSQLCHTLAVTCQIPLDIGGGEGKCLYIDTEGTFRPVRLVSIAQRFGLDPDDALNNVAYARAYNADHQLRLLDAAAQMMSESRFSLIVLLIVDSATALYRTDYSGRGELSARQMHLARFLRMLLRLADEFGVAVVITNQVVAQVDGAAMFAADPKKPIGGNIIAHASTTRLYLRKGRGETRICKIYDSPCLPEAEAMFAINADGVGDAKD
The assay is described as follows: yeast two-hybrid, RAD51 hybrid construct.

B1: compound 5 peptide sequence (SEQ ID NO.:5) (peptide)
peptide: KRRRRRRRKRLGVRLRVSRML
Consider B1, for which the binding result with H. sapiens Rad51 is “binds”; with S. pombe Rad51, “binds”; in the assay with S. cerevisiae Rad51, “no binding”; with G. gallus Rad51, “binds”; in the assay with Rad51 (F86E; A89E) it was “binds”; in assay [1] it was “no binding”.
